Measured values published in the supplement of paper PMC9732359.
± gives the uncertainty stated by the source.

Test: protein stability index of a GFP-peptide fusion (yeast GPS) (PSI 1-4); higher = more stable; sorted into four equal gates, so the index is relative within each strain
Outline: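 Plasmids isolated from each sorting gate were PCR-amplified and Illumina-sequenced, and barcodes assigned the reads to strains. The gates, four of equal size, were set by GFP/Cherry fluorescence ratio on mid-log cultures in leucine-free medium. These cultures were yeast carrying a pooled library of tiled 17-residue yeast protein peptides fused downstream of GFP on a plasmid that also expresses Cherry. The protein stability index is the sum of every gate's read frequency times its gate number.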

Sequence | protein stability index (doa10∆) | protein stability index (pdr5∆) | protein stability index (san1∆) | protein stability index (ubr1∆)
IEEHPTVVDAIDNSDEI [IRR1] | 3.35 ± 0.13 | 3.12 ± 0.076 | 3.38 ± 0.069 | 3.1 ± 0.06
IEEIEYNVKNIIQGRKN [PCI8] | 2.38 ± 0.059 | 2.18 ± 0.052 | 2.39 ± 0.095 | 1.76 ± 0.042
IEHNLRVISEYYSRITL [RPN5] | 2.63 ± 0.087 | 2.54 ± 0.078 | 2.41 ± 0.063 | 2.46 ± 0.073
IEKGSTFGINLIYVNPF [FAS1] | 2.58 ± 0.06 | 2.61 ± 0.068 | 2.71 ± 0.052 | 2.78 ± 0.04
IEKSRLFSEKTIRYLMQ [SNF6] | 1.82 ± 0.069 | 2.29 ± 0.048 | 2.28 ± 0.084 | 1.86 ± 0.055
IEKWTANLLPARQFGYV [RPS22A] | 1.6 ± 0.075 | 1.92 ± 0.088 | 1.8 ± 0.15 | 2.14 ± 0.17
IERYPLKVTKKHGAKKV [RPL27A] | 3.37 ± 0.092 | 3.6 ± 0.14 | 3.54 ± 0.087 | 3.23 ± 0.1
IESIRSCKDSQLKWAQN [YIL149C/MLP2] | 2.78 ± 0.064 | 3.01 ± 0.069 | 2.75 ± 0.053 | 2.95 ± 0.053
IEVTIGIDQYSFNVKEN [AAR2] | 2.67 ± 0.053 | 2.75 ± 0.05 | 2.58 ± 0.047 | 2.76 ± 0.056
IFEISLQRKDYTSIVQC [YML103C/NUP188] | 1.76 ± 0.051 | 1.75 ± 0.048 | 2.05 ± 0.12 | 1.88 ± 0.052
IFFNIPLVAHLGLYVGV [YJL039C/NUP192] | 1.42 ± 0.044 | 1.4 ± 0.059 | 1.27 ± 0.1 | 1.33 ± 0.048
IFIATQLEKKIRFVCLS [BRR2] | 2.17 ± 0.2 | 1.86 ± 0.11 |  | 1.49 ± 0.074
IFLKRKDFTNKNLIQLI [SRB8] | 1.31 ± 0.053 | 1.43 ± 0.041 | 1.28 ± 0.086 | 1.4 ± 0.041
IFNSGKMIILDKLLKRL [ISW2] | 2.17 ± 0.077 | 1.93 ± 0.055 | 1.55 ± 0.1 | 2.17 ± 0.046
IFSFHQDSIFQRIIADL [SRB8] | 2.49 ± 0.062 | 2.06 ± 0.072 | 2.24 ± 0.081 | 2.41 ± 0.035
IFTCQIMNLITNEPCGA [RPN4] | 2.07 ± 0.087 | 2.61 ± 0.18 | 2.36 ± 0.21 | 
IGEGAKLVRDAFALAKE [RPT5] | 3.51 ± 0.12 | 3.38 ± 0.14 | 3.3 ± 0.093 | 3.5 ± 0.11
IGESARIIREMFAYAKE [RPT4] | 2.31 ± 0.065 | 2.29 ± 0.064 | 2.04 ± 0.063 | 1.75 ± 0.038
IGFITSGTYHLNCGNGM [POP1] | 2.56 ± 0.1 | 2.93 ± 0.082 | 2.09 ± 0.093 | 2.92 ± 0.048
IGLLNKSKSSLDGKFSL [RPN2] | 2.67 ± 0.089 | 2.85 ± 0.15 | 2.5 ± 0.14 | 2.74 ± 0.093
IGQLIGEVMKELSEEKY [RPT4] | 3.27 ± 0.063 | 3.42 ± 0.076 | 3.44 ± 0.067 | 3.27 ± 0.042
IGSTSKRPIESGTSSDP [YIL149C/MLP2] | 3.23 ± 0.087 | 3.22 ± 0.1 | 3.17 ± 0.11 | 3.36 ± 0.064
IGTINSIVHINSQERVQ [SIR2] | 2.13 ± 0.037 | 2.16 ± 0.034 | 2.12 ± 0.05 | 1.95 ± 0.026
IGTKRFDSEKSGDREVQ [RPT5] | 3.15 ± 0.19 | 3.51 ± 0.2 | 2.8 ± 0.26 | 3.41 ± 0.12
IGVETGSEPLIQQVVEY [PRP28] | 2.99 ± 0.065 | 3.08 ± 0.084 | 2.95 ± 0.067 | 2.73 ± 0.16
IHALAAKLLQENDTTLV [FAS1] | 2.53 ± 0.13 | 2.8 ± 0.14 | 2.86 ± 0.12 | 3.33 ± 0.18
IHFADVAHITTKSPAYP [RGR1] | 2.42 ± 0.054 | 2.61 ± 0.055 | 2.55 ± 0.045 | 2.56 ± 0.033

Sequence | protein stability index (doa10∆) | protein stability index (pdr5∆) | protein stability index (san1∆) | protein stability index (ubr1∆)
IHFREHQSELIIKQTVH [YMR129W/POM152] | 2.46 ± 0.072 | 2.85 ± 0.069 | 2.48 ± 0.097 | 2.21 ± 0.053
IHIQSKENYPWELYTDF [POP3] | 2.99 ± 0.095 | 3.16 ± 0.12 | 2.69 ± 0.12 | 3.12 ± 0.075
IHNTKLPAYSGEIGDFF [POP1] | 3.07 ± 0.06 | 3.1 ± 0.062 | 3.1 ± 0.047 | 3.02 ± 0.06
IHQYLFQEGVVVAKKDF [RPS10A] | 2.29 ± 0.068 | 2.08 ± 0.071 | 1.93 ± 0.089 | 2.04 ± 0.085
IIESHLIQLQNIFKAEM [CSN9] | 2.75 ± 0.1 | 3.14 ± 0.11 | 2.85 ± 0.088 | 2.74 ± 0.073
IIKDYVLDIVPGSSITE [SRB4] |  | 2.58 ± 0.19 |  | 3.2 ± 0.19
IIKKDEVVKRYLKMRQD [PUP3] | 3.66 ± 0.2 |  |  | 
IIKQTVHPIPDVAFADG [YMR129W/POM152] | 2.8 ± 0.053 | 2.89 ± 0.062 | 2.77 ± 0.046 | 2.82 ± 0.043
IILSIDEHHESFELKEE [RRP6] | 3.19 ± 0.1 | 2.99 ± 0.15 | 3.08 ± 0.08 | 2.98 ± 0.088
IIMHKDVEIGRMPIMLR [RET1] | 3.29 ± 0.26 | 3.18 ± 0.16 | 2.98 ± 0.079 | 2.72 ± 0.16
IINFGEIEQNTELLDEF [RPN10] | 3.25 ± 0.1 | 3.42 ± 0.083 | 3.23 ± 0.07 | 3.17 ± 0.072
IIQPFLDNSKMDYHFIF [RGR1] | 2.99 ± 0.13 | 2.06 ± 0.082 | 2.22 ± 0.049 | 2.31 ± 0.11
IITQYVFESLEINNLIQ [ARP9] | 3.2 ± 0.098 | 2.93 ± 0.081 | 2.8 ± 0.12 | 2.96 ± 0.1
IIYHTTFSWLNAELLDY [YLR018C/POM34] | 2.72 ± 0.072 | 2.19 ± 0.068 | 2.56 ± 0.092 | 2.41 ± 0.052
IIYPRSQTTLVQFGLNE [ARP9] | 3.04 ± 0.19 | 1.33 ± 0.082 | 2.03 ± 0.12 | 1.26 ± 0.17
IKGPEFKFSGTVSSDVF [YLR335W/NUP2] |  | 3.17 ± 0.18 |  | 
IKIGIRVMKSLSINEKD [YCG1] | 1.49 ± 0.087 | 1.61 ± 0.061 | 1.36 ± 0.2 | 1.56 ± 0.091
IKIKSLEYEISKLKKET [YIL149C/MLP2] | 2.97 ± 0.26 | 2.97 ± 0.096 | 2.99 ± 0.075 | 3.06 ± 0.07
IKKKRKELFEKTFDYVS [SMC1] | 3.16 ± 0.12 | 3.07 ± 0.099 | 3.09 ± 0.12 | 3.13 ± 0.084
IKKPKTYKYPSLKGVDP [RPL29] | 3.63 ± 0.29 | 3.62 ± 0.2 |  | 
IKLVKQNDELKFQGVLE [RPC34] | 3.25 ± 0.13 | 3.53 ± 0.12 | 3.37 ± 0.051 | 2.58 ± 0.095
IKNLPADVSKLMYSITF [SRB2] | 2.41 ± 0.054 | 2.95 ± 0.046 | 2.38 ± 0.049 | 2.76 ± 0.047
IKNVQDLLILTRSIKEK [SRB6] | 1.34 ± 0.11 | 1.31 ± 0.13 |  | 1.76 ± 0.2
IKSIIEQRKQKLSKILP [SMC3] | 2.44 ± 0.084 | 2.7 ± 0.091 | 2.52 ± 0.081 | 2.82 ± 0.078
IKTVVLVPQLGHVGSVQ [PRP8] | 2.42 ± 0.056 | 2.47 ± 0.049 | 2.28 ± 0.063 | 2.35 ± 0.041
IKVEGAVGNLGNAVTVT [RPL22A] | 3.39 ± 0.14 | 3.18 ± 0.13 | 3.15 ± 0.083 | 3.06 ± 0.079
IKVWTIKGQCLATLLGH [ASC1] | 2.22 ± 0.085 | 1.59 ± 0.099 | 1.69 ± 0.1 | 1.39 ± 0.057
